Measurements from the Human Domainome abundance scans (Beltran et al. 2025).
± gives the uncertainty stated by the source.

B1: Protein piccolo, residues 1058 to 1114; numbered along this chain, Q9Y6V0 (parent)
chain: TCPLCKTELNIGSKDPPNFNTCTECKNQVCNLCGFNPTPHLTEIQEWLCLNCQTQRA

Variants of: B1
Test: abundance fitness (aPCA) (normalised: wild type 0, dead -1); higher = more abundant; growth selection in yeast, the domain comes from the species named
Details: Homo sapiens

Variant | abundance fitness
TCPLCKTELNIGSKDPPNFNTCTECKNQVCNLCGFNPTPHLTEIQEWLCMNCQTQRA | -0.565 ± 0.31
TCPLCKTELNIGSKDPPNFNTCTECKNQVCNLCGFNPTPHLTEIQEWLCYNCQTQRA | -0.239 ± 0.25
TCPLCKTELNIGSKDPPNFNTCTECKNQVCNLCGFNPTPHLTEIQEWLCHNCQTQRA | 0.145 ± 0.16
TCPLCKTELNIGSKDPPNFNTCTECKNQVCNLCGFNPTPHLTEIQEWLCRNCQTQRA | 0.182 ± 0.098
TCPLCKTELNIGSKDPPNFNTCTECKNQVCNLCGFNPTPHLTEIQEWLCINCQTQRA | -0.173 ± 0.23
TCPLCKTELNIGSKDPPNFNTCTECKNQVCNLCGFNPTPHLTEIQEWLCPNCQTQRA | 0.329 ± 0.17
TCPLCKTELNIGSKDPPNFNTCTECKNQVCNLCGFNPTPHLTEIQEWLCLMCQTQRA | -0.557 ± 0.2
TCPLCKTELNIGSKDPPNFNTCTECKNQVCNLCGFNPTPHLTEIQEWLCLACQTQRA | -0.015 ± 0.16
TCPLCKTELNIGSKDPPNFNTCTECKNQVCNLCGFNPTPHLTEIQEWLCLSCQTQRA | -0.247 ± 0.12
TCPLCKTELNIGSKDPPNFNTCTECKQQVCNLCGFNPTPHLTEIQEWLCLNCQTQRA | 0.112 ± 0.15
TCPLCKTELNIGSKDPPNFNTCTECKFQVCNLCGFNPTPHLTEIQEWLCLNCQTQRA | -0.424 ± 0.19
TCPLCKTELNIGSKDPPNFNTCTECKNQVCNMCGFNPTPHLTEIQEWLCLNCQTQRA | -0.131 ± 0.13
TCPLCKTELNIGSKDPPNFNTCTECKNQVCNDCGFNPTPHLTEIQEWLCLNCQTQRA | -0.032 ± 0.2
TCPLCKTELNIGSKDPPNFNTCTECKNQVCNTCGFNPTPHLTEIQEWLCLNCQTQRA | -0.017 ± 0.15
TCPLCKTELNIGSKDPPNFNTCTECKNQVCNLCGFNPTPHLTEIEEWLCLNCQTQRA | -0.38 ± 0.31
TCPLCKTELNIGSKDPPNFNTCTECKNQVCNLCGFNPTPHLTEITEWLCLNCQTQRA | -0.202 ± 0.15
TCPLCKTELNIGSKDPPNFNTCTECTNQVCNLCGFNPTPHLTEIQEWLCLNCQTQRA | 0.195 ± 0.14
TCPLCKTELNIGSKDPPNFNTCTECQNQVCNLCGFNPTPHLTEIQEWLCLNCQTQRA | 0.04 ± 0.14
TCPLCKTELNIGSKDPPNFNTCTECKNQVCNLCGFNPTPHLTEIQEWVCLNCQTQRA | -0.165 ± 0.098
TCPLCKTELSIGSKDPPNFNTCTECKNQVCNLCGFNPTPHLTEIQEWLCLNCQTQRA | -0.08 ± 0.086
TCPLCKTELKIGSKDPPNFNTCTECKNQVCNLCGFNPTPHLTEIQEWLCLNCQTQRA | 0.2 ± 0.12
TCPLDKTELNIGSKDPPNFNTCTECKNQVCNLCGFNPTPHLTEIQEWLCLNCQTQRA | -0.606 ± 0.095
TCPLSKTELNIGSKDPPNFNTCTECKNQVCNLCGFNPTPHLTEIQEWLCLNCQTQRA | -0.68 ± 0.072
TCPLLKTELNIGSKDPPNFNTCTECKNQVCNLCGFNPTPHLTEIQEWLCLNCQTQRA | -1.17 ± 0.087

Variant | abundance fitness
TCPLCKTELNIGSNDPPNFNTCTECKNQVCNLCGFNPTPHLTEIQEWLCLNCQTQRA | -0.016 ± 0.26
TCPLCKTELNIGSMDPPNFNTCTECKNQVCNLCGFNPTPHLTEIQEWLCLNCQTQRA | -0.128 ± 0.18
TCPLCKTELNIGSRDPPNFNTCTECKNQVCNLCGFNPTPHLTEIQEWLCLNCQTQRA | 0.042 ± 0.1
TCPLCKTELNIGSKDPPNFNTCTECKNQVCNLCGFNPTPHLTEEQEWLCLNCQTQRA | 0.146 ± 0.16
TCPLCKTELNIGSKDPPNFNTCTECKNQVCNLCGFNPTPHLTEDQEWLCLNCQTQRA | -0.38 ± 0.39
TCPLCKTELNIGSKDPPNFNTCTECKNQVCNLCGFNPTPHLTEHQEWLCLNCQTQRA | -0.166 ± 0.25
TCPLCKTELNIGSKDPPNFNTCTECKNQVCNLCGFNPTPHLTEQQEWLCLNCQTQRA | 0.074 ± 0.2
TCPLCKTELNIGSKDPPNFNTCTECKNQVCNLCGFNPTPHLTEGQEWLCLNCQTQRA | 0.02 ± 0.14
TCPLCKTELNIGSKDPPNFNTDTECKNQVCNLCGFNPTPHLTEIQEWLCLNCQTQRA | -0.817 ± 0.2
TCPLCKTELNIGSKDPPNFNTETECKNQVCNLCGFNPTPHLTEIQEWLCLNCQTQRA | -0.54 ± 0.16
TCPLCKTELNIGSKDPPNFNTCTECKNQVCNLCGFNPTFHLTEIQEWLCLNCQTQRA | 0.025 ± 0.16
TCPLCKTELNIGSKDPPNFNTCTECKNQVCNLCGFNPTWHLTEIQEWLCLNCQTQRA | -0.303 ± 0.11
TPPLCKTELNIGSKDPPNFNTCTECKNQVCNLCGFNPTPHLTEIQEWLCLNCQTQRA | -1.1 ± 0.19
TWPLCKTELNIGSKDPPNFNTCTECKNQVCNLCGFNPTPHLTEIQEWLCLNCQTQRA | -0.904 ± 0.15
TIPLCKTELNIGSKDPPNFNTCTECKNQVCNLCGFNPTPHLTEIQEWLCLNCQTQRA | -1.23 ± 0.28
TCPLCKTELNIGSKDPPNFNTCTECKNQVCNLCGFNPTPHLTEIQEGLCLNCQTQRA | 0.056 ± 0.15
TCPLCKTELNIGSKDPPNFNTCTECKNQVCNLCGFNPTPHLTEIQEMLCLNCQTQRA | -0.06 ± 0.17
TCPLCKTELNIGSKDPPNFNTCTECKNQVCNLCGFNPTPHLTEIQENLCLNCQTQRA | -0.354 ± 0.29
TCPLCKTELNIGSKDPPNFNTCTECKNQVCNLCGFNPTPHLTEIQEILCLNCQTQRA | -0.049 ± 0.38
VCPLCKTELNIGSKDPPNFNTCTECKNQVCNLCGFNPTPHLTEIQEWLCLNCQTQRA | -0.202 ± 0.25
SCPLCKTELNIGSKDPPNFNTCTECKNQVCNLCGFNPTPHLTEIQEWLCLNCQTQRA | -0.129 ± 0.18
TCPLCKTELNIGSKDPPNFNTCTDCKNQVCNLCGFNPTPHLTEIQEWLCLNCQTQRA | 0.008 ± 0.14
TCPLCKTELNIGSKDPPNFNTCTACKNQVCNLCGFNPTPHLTEIQEWLCLNCQTQRA | -0.061 ± 0.086
